Data taken from the supplement of paper PMC12764529.
± gives the half width of the 95% confidence interval.

Legend:
[1] = folding stability dG unfold from chymotrypsin proteolysis; higher = more stable
In short: (§1)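 Bayesian fitting of sequencing counts gave K50 for each design. Unfolding free energy followed by setting this against a sequence-predicted unfolded-state K50 and a shared folded-state K50, either per protease or with trypsin and chymotrypsin combined. The designs, under 80 residues and lacking cysteine, were digested in a PA-tagged cDNA display format at 11 threefold-diluted protease concentrations and without protease, and only those with AlphaFold2 dimer inter-PAE above 15 were kept.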

[2] = folding stability dG unfold from trypsin proteolysis; higher = more stable
In short: as §1

[3] = folding stability dG unfold (combined trypsin and chymotrypsin); higher = more stable
In short: as §1

Row | Sequence | folding stability dG unfold [1] | folding stability dG unfold [2] | folding stability dG unfold [3]
1 | SAGGSAGGSPIVVDSPEDIEKAIEEAIASGAKSIVEVGPNRVRVVFVIPGEPKVFVLELPLNGSAGGSAGGS [r12_368_TrMRF] | 1.93 ± 0.092 kcal/mol | 1.42 ± 0.051 kcal/mol | 1.79 ± 0.11 kcal/mol
2 | SAGGSAGGSAGGSMKLNITVTLPDGTPITLTFPVDKIEEILKEAGLENISPELITKIEPISAGGSAGGSAGG [r7_745_JUSTAS] | 1.39 ± 0.026 kcal/mol | 1.33 ± 0.034 kcal/mol | 1.37 ± 0.051 kcal/mol
3 | SAGGSAGGSAGGSGMTLSVTVLEEKPERLPNGGTIITRTVRIPETGEVIEEVTYEPGALSAGGSAGGSAGGS [r4_94_JUSTAS] | 0.0529 ± 0.058 kcal/mol | -0.594 ± 0.17 kcal/mol | -0.092 ± 0.085 kcal/mol
4 | SAGGNAKEIASYLADWFQERFPPNMKVKVSVTVTPDGIVVRIRMPGGWQFEITIKDGKLQEIEWTPYSAGGS [r8_287_TrROS] | 2.874 ± 0.026 kcal/mol | 2.72 ± 0.07 kcal/mol | 2.79 ± 0.067 kcal/mol
5 | SAGSPPDDVREEETEEVVPSPDGSLTVTRTPVVRRPGEEEEVRTETTVYFPPSDETLTSESLTRFPGASAGG [r19_387_JUSTAS] | 0.895 ± 0.051 kcal/mol | 0.356 ± 0.049 kcal/mol | 0.695 ± 0.095 kcal/mol
6 | KTITIIIPMTPEQIEELAKALAEKLGLSEEEVEVVKVEKIKNEDGELYVKITIKLKETGKEITIIVPLKDLS [r1_21_TrROS_Hall] | 3.2 ± 0.12 kcal/mol | 1.76 ± 0.08 kcal/mol | 2.8 ± 0.12 kcal/mol
7 | SAGGSAGGSASMTVRATLPNGEEIEFEADVIKADPGGDSVTVYLILPNGGEIPFEVELEEEESAGGSAGGSA [r18_163_TrMRF] | 0.706 ± 0.19 kcal/mol | 0.37 ± 0.042 kcal/mol | 0.574 ± 0.076 kcal/mol
8 | MKYTLTLTDPTTPTTSTLTVPNDPEKALALLREAKAANPNLTATLTGVTSEEIVEAAKKAGLKDIKPKTAAS [r1_114_JUSTAS] | 0.301 ± 0.27 kcal/mol | 0.15 ± 0.13 kcal/mol | 0.316 ± 0.27 kcal/mol
9 | SAGMKIEVKRLPGPGDYLFTLVDPELAARLKAVYPGLEEVIFPVGGPDSVPEEEIKERAEKELKELLLSAGG [r19_298_JUSTAS] | -0.66 ± 0.64 kcal/mol | -0.0847 ± 0.17 kcal/mol | -0.268 ± 0.31 kcal/mol
10 | SAGGSAGGSDPSATISFSFPLPDGSTININITITDEGSGPRIEIDITVTDANNNTAPAKFTIDSAGGSAGGS [r12_33_TrMRF] | 1.4 ± 0.14 kcal/mol | 1.58 ± 0.11 kcal/mol | 1.65 ± 0.11 kcal/mol
11 | SAGGSAGGSAGEIENPSLLSQIVPRKVKVTTEIRKLPNGSYETVTTVTYGSTTTTTTSSGATSAGGSAGGSA [r18_335_JUSTAS] | -0.256 ± 0.15 kcal/mol | 0.163 ± 0.048 kcal/mol | 0.0269 ± 0.096 kcal/mol
12 | SAGGSAMEEEKPPKVKVRITVELEDGEKLEIEFETKEEAEEAAEALAKELEEKTGLKIKKIEVEEVSAGGSA [r15_140_TrROS_Hall] | 2.96 ± 0.13 kcal/mol | 2.77 ± 0.11 kcal/mol | 2.81 ± 0.23 kcal/mol
13 | SAGGMEIKVTVEKREDGYLVVTVEKAESKEEAIEAIKKELREKYPDAEITITDKDGNTIVIKLKDLKSAGGS [r8_236_TrROS_Hall] | 2.52 ± 0.1 kcal/mol | 1.16 ± 0.071 kcal/mol | 2.06 ± 0.067 kcal/mol
14 | SAGGSAGGSAGGGMSFKKRKGSISLTLRVTLTLPNGTPATLDIELELEEETVEPVYPELESAGGSAGGSAGG [r7_926_JUSTAS] | 4.76 ± 0.14 kcal/mol | 2.87 ± 0.086 kcal/mol | 4.19 ± 0.24 kcal/mol
15 | SAGGSAGGSATLTLELEIEVDGVRFRVRAELRLDEDGRLHLRVEIEVEPLPPPPPLVAEGEELSAGGSAGGS [r20_30_TrROS_Hall] | 4.33 ± 0.23 kcal/mol | 2.88 ± 0.14 kcal/mol | 4.05 ± 0.3 kcal/mol
16 | SAGGEELARRLAEELRELGLEVEVVDVDLEEGKITIRVRPAPPPPPVTERRTRRRPDGREVTEERVLSAGGS [r8_318_TrROS_Hall] | 0.0369 ± 0.15 kcal/mol | 0.282 ± 0.21 kcal/mol | 0.214 ± 0.16 kcal/mol
17 | SAGGSAGGSAGDNYVMITHTIPFPPGEPLEIKIPPGAKIDDIDPERDPGNGTITVSIWFRSAGGSAGGSAGG [r11_701_TrROS] | 0.879 ± 0.17 kcal/mol | 0.491 ± 0.24 kcal/mol | 0.73 ± 0.25 kcal/mol
